Residue numbers refer to the chain shown, from its start.
B1: K51005: KLK5/KLK7 inhibitory peptide (SPINK2 mutant), amino acid sequence SEQ ID NO: 24 (protein)
chain: GPQFGLFSKYRTPNCMQHARQGCHYDYDPVCGSDMSTYANECTLCMKIREGGHNIKIIRNGPCGG
B2: K51072: KLK5 inhibitory peptide (SPINK2 mutant), amino acid sequence SEQ ID NO: 10 (protein)
chain: GPQFGLFSKYRTPNCQEDMTEYCARDFDPVCGSDMSTYANECTLCMKIREGGHNIKIIRNGPCGG
B3: K50062: KLK5 inhibitory peptide (SPINK2 mutant), amino acid sequence SEQ ID NO: 16 (protein)
chain: B1 chain with M16Q, H18Y, A19R, R20E, Q21L, H24G, Y25R, D26Q
B4: K51069: KLK5/KLK14 inhibitory peptide (SPINK2 mutant), amino acid sequence SEQ ID NO: 30 (protein)
chain: B1 chain with M16S, H18V, A19V, R20E, Q21T, G22Y, H24N, Y25R
B5: K51034: KLK5 inhibitory peptide (SPINK2 mutant), amino acid sequence SEQ ID NO: 14 (protein)
chain: GPQFGLFSKYRTPNCGRYTTGGCNKEYEPVCGSDMSTYANECTLCMKIREGGHNIKIIRNGPCGG
B6: K50098: KLK5 inhibitory peptide (SPINK2 mutant), amino acid sequence SEQ ID NO: 20 (protein)
chain: B5 chain with G16T, R17S, Y18Q, T20L, G22S, N24S, K25R, E28D
B7: K51028: KLK5/KLK7 inhibitory peptide (SPINK2 mutant), amino acid sequence SEQ ID NO: 22 (protein)
chain: B5 chain with G16Y, R17Q, T19R, T20S, G21K, N24T, K25H, E28D
B8: K50031: KLK5/KLK7 inhibitory peptide (SPINK2 mutant), amino acid sequence SEQ ID NO: 26 (protein)
chain: B5 chain with R17E, T19K, T20G, G21R, N24Y, K25Y, E26H, E28D
B9: K50015: KLK5/KLK14 inhibitory peptide (SPINK2 mutant), amino acid sequence SEQ ID NO: 32 (protein)
chain: B5 chain with G16Y, R17D, Y18T, G21H, G22Y, N24S, K25R, E28D
B10: K51057: KLK5/KLK7 inhibitory peptide (SPINK2 mutant), amino acid sequence SEQ ID NO: 28 (protein)
chain: B5 chain with R17T, Y18M, T19Q, T20G, G21S, N24T, K25Y, E26H
B11: K50016: KLK5 inhibitory peptide (SPINK2 mutant), amino acid sequence SEQ ID NO: 12 (protein)
chain: GPQFGLFSKYRTPNCSQWQYSSCDRVYDPVCGSDMSTYANECTLCMKIREGGHNIKIIRNGPCGG
B12: K50032: KLK5 inhibitory peptide (SPINK2 mutant), amino acid sequence SEQ ID NO: 6 (protein)
chain: B11 chain with S16L, Q17N, Q19T, Y20D, S21H, S22Q, D24E, V26D
B13: K51090: KLK5 inhibitory peptide (SPINK2 mutant), amino acid sequence SEQ ID NO: 18 (protein)
chain: GPQFGLFSKYRTPNCDEIGKYGCGRSYDPVCGSDMSTYANECTLCMKIREGGHNIKIIRNGPCGG
B14: K50055: KLK5 inhibitory peptide (SPINK2 mutant), amino acid sequence SEQ ID NO: 8 (protein)
chain: B13 chain with D16A, E17N, I18T, G19M, Y21Q, G22D, G24T, S26E

What follows are molecules tested against T1, human KLK14 (Homo sapiens, UniProt Q9P0G3) (assay: Human KLK14 inhibitory activity, peptide substrate degradation). Settings: KLK5 inhibitory peptide; hKLK14 0.2 μg/mL, substrate 100 μM.
T1 construct: His tag (C); FLAG (Gly-DYKDDDDK before the His tag); made in house; host or cells: Expi293F cells
T1 sequence (Q9P0G3 25-251): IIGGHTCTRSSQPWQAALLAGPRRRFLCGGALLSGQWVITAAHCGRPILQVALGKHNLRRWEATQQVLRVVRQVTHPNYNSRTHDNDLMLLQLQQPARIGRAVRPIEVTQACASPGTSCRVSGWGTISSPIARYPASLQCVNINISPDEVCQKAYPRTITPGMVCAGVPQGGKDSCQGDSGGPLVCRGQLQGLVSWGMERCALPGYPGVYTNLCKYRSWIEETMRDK
Type: biochemical
Procedure: The substrate peptide was dissolved in DMSO to 10 mM and diluted with an assay buffer (50 mM Tris-HCl, 150 mM NaCl, pH 8.0) for use. 25 μL each of human/mouse KLK5, human/mouse KLK7, or human/mouse KLK14 and the inhibitory peptide diluted with the assay buffer were mixed, followed by a reaction at 37° C. for 20 minutes. Thereafter, 50 μL of a substrate diluted with the assay buffer was added thereto, and the fluorescence signal was measured using Enspire (PerkinElmer). The combinations of the enzyme and the substrate used were as follows.
Evaluation of Human KLK14 inhibitory activity: hKLK14 with a final concentration of 0.2 μg/mL, a substrate peptide Boc-Val-Pro-Arg-AMC with a final concentration of 100 μM (R&D Systems, Inc.), and a fluorescence signal with excitation at 380 nm/emission at 460 nm
The average value of three independent experiments was used to calculate the IC50 value.
According to the method described in Example 3-1, the inhibitory activities of each KLK5 inhibitory peptide Fc fusion against human/mouse KLK5, human/mouse KLK7, and human/mouse KLK14 were evaluated. […] The average value of three independent experiments was used to calculate the IC50 value.

Q: Which IC50 does the source give for B1 here?
A: > 1000 nM

These molecules were tested against T2, KLK5 (Homo sapiens, UniProt Q9Y337) (assay: KLK5 binding activity of KLK5 inhibitory peptide, surface plasmon resonance (biotinylated KLK5 captured, peptide as analyte)). Settings: BIAcore T 200, single cycle kinetics.
T2 construct: “Active KLK5” means active KLK5, which is composed of a domain having a protease activity; His tag (C); FLAG (Gly-DYKDDDDK before the His tag); made in house; host or cells: Expi293F cells
T2 sequence (Q9Y337 67-293): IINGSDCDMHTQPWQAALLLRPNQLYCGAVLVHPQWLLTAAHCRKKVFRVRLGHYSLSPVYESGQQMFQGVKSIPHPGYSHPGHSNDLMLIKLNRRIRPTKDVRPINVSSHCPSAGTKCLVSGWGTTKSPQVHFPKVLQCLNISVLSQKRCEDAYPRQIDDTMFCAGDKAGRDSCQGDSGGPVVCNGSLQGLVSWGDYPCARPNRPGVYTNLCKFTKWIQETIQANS
Procedure: In order to measure the binding affinity of the KLK5 inhibitory peptides, surface plasmon resonance analysis was conducted using BIAcore T 200 (GE healthcare). A complementary strand of DNA of a streptavidin conjugate was captured by hybridization on Sensor Chip CAP (GE healthcare) on which single-stranded DNA immobilized. Next, KLK5 biotinylated using EZ-Link NHS-PEG4-Biotin (Thermo Fisher Scientific) was captured at a flow rate of 10 μL/min to immobilize about 10 RU. Thereafter, the KLK5 inhibitory peptide, serially diluted 2-fold with HBS-EP (0.625 to 10 nM), was added thereto as an analyte at a flow rate of 30 μL/min. In the BIAcore T 200 Evaluation software (version 2.0), kon and koff were calculated by analysis using Single cycle kinetics in a simple one-to-one Langmuir binding model. The dissociation constant KD was calculated as a ratio of koff/kon. Further, multiple KLK5 inhibitory peptides were measured by regenerating Sensor Chip CAP using a Regeneration buffer attached to a Biotin CAPture Kit (GE healthcare) and repeatedly capturing biotinylated KLK5.

Q: Which “Koff” value does the source give for B2 here?
A: 2.2e-05 s⁻¹

Q: Which “Koff” value does the source give for B1 here?
A: 0.0012 s⁻¹

Q: With B3 as the molecule, how does the “Koff” value read?
A: 2.9e-06 s⁻¹

Q: For B4, which “Koff” value is on record?
A: 1e-06 s⁻¹

Q: With B5 as the molecule, how does the “Koff” value read?
A: 3.5e-05 s⁻¹

Q: For B6, which “Koff” value is on record?
A: 1.8e-05 s⁻¹

Q: Which “Koff” value does the source give for B7 here?
A: 2e-05 s⁻¹

Q: For B8, which “Koff” value is on record?
A: 5e-05 s⁻¹

Q: With B9 as the molecule, how does the “Koff” value read?
A: 1e-06 s⁻¹

Q: How did the “Koff” value turn out when B10 was run?
A: 0.0015 s⁻¹

Q: Which “Koff” value does the source give for B11 here?
A: 0.00029 s⁻¹

Q: Which “Koff” value does the source give for B12 here?
A: 0.00027 s⁻¹

Q: For B13, which “Koff” value is on record?
A: 5.7e-05 s⁻¹

Q: Which “Koff” value does the source give for B14 here?
A: 1.8e-05 s⁻¹

Each molecule was assayed against T2, KLK5 (assay: X-ray crystal structure analysis of KLK5/KLK5 inhibitory peptide complex). Settings: resolution 1.8 Å.
Procedure: According to the methods described in (1-2) and (2-2), KLK5 inhibitory peptides K51034 and KLK5 having the amino acid sequences shown by the SEQ ID numbers were prepared. After mixing the two under conditions of 50 mM Tris-HCl, 150 mM NaCl, and pH 8.0, a complex was isolated and purified by gel filtration chromatography (Superdex 200 10/300 GL).
The complex solution prepared in (4-1) was concentrated to 12 mg/mL, thereafter mixed with a reservoir solution (0.2 M Magnesium Chloride hexahydrate, 20% PEG3350) at a ratio of 1:1, and crystallized by a vapor diffusion method. The obtained cubic single crystal was immersed in a reservoir solution containing 20% glycerol and thereafter frozen in liquid nitrogen. The frozen crystals were irradiated with X-rays in a cryo-stream to obtain a diffraction image (Hypixel 6000HE/MicroMax007). Scaling data with a maximum resolution of 1.7 Å was obtained by analysis using CrysAlisPro. The phase was determined by the molecular replacement method using KLK5 alone (PDB ID: 2PSX) and SPINK2 alone (PDB ID: 2JXD) as templates. After structural refinement, complex crystals of KLK5/the peptide K51034 were determined at a resolution of 1.8 Å. One molecule each of KLK5 and SPINK2 was contained in a unit cell. […]

Q: With B5 as the molecule, how does the “binding site on KLK5 in complex crystal” value read?
A: bound to a region containing the KLK5 enzyme's active site
